Tests used:
[1] = molecular target: phospholamban (PLN) (mouse (endogenous in mouse heart)) (UniProt P61014); test: co-IP; PLN antibody immunoprecipitation from 3 % glyoxal-fixed (cross-linked) mouse cardiac tissue lysate (xIP group), immunoblot of co-precipitated proteins
[2] = molecular target: phospholamban (PLN) (mouse (endogenous in mouse heart)) (UniProt P61014); test: co-IP; PLN antibody immunoprecipitation from unfixed mouse cardiac tissue lysate (IP group), immunoblot of co-precipitated proteins

Sequence of UniProt P61014 (P61014 whole entry): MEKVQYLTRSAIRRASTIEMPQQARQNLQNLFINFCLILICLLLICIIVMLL

signal of co-precipitated protein (relative, %) [1]: 282%
signal of co-precipitated protein (relative, %) [2]: 100%
Substance: integrin beta-1 (ITGB1) (from UniProt P09055 21-798) (natural protein)

Source: article PMC12145851
